Experimental data reported in PMC2199204.

Biological target: DGKζ with a FLAG epitope tag at its COOH terminus (DGKζ-FLAG) (human)
Assay: co-IP

Sequence of DGKζ with a FLAG epitope tag at its COOH terminus (DGKζ-FLAG) (human) (Q13574 whole entry): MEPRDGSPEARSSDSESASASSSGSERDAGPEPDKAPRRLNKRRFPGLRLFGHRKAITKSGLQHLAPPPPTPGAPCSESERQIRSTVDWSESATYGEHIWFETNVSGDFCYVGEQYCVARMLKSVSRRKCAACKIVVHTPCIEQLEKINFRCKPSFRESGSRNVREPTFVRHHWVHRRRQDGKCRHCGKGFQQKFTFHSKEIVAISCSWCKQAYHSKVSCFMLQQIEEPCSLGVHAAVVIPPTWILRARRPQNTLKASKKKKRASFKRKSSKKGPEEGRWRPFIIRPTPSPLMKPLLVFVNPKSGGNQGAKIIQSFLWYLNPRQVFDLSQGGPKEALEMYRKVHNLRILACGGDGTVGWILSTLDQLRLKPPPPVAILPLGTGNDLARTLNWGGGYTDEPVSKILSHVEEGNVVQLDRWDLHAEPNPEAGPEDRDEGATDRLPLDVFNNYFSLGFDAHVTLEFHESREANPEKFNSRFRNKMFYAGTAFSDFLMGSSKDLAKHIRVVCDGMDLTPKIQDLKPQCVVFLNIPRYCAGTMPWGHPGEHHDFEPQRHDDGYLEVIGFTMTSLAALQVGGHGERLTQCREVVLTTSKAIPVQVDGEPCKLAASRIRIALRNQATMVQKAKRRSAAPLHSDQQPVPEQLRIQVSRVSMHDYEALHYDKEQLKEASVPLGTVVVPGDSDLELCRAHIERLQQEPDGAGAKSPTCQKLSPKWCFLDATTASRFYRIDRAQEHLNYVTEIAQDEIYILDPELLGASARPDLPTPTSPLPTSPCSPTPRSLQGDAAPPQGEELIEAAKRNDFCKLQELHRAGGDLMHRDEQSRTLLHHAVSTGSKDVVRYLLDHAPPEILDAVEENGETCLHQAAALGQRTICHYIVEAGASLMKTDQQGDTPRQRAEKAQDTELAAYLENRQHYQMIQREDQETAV
Sequence of RasGRP with an NH2-terminal HA epitope tag (HA-RasGRP) (O95267 whole entry): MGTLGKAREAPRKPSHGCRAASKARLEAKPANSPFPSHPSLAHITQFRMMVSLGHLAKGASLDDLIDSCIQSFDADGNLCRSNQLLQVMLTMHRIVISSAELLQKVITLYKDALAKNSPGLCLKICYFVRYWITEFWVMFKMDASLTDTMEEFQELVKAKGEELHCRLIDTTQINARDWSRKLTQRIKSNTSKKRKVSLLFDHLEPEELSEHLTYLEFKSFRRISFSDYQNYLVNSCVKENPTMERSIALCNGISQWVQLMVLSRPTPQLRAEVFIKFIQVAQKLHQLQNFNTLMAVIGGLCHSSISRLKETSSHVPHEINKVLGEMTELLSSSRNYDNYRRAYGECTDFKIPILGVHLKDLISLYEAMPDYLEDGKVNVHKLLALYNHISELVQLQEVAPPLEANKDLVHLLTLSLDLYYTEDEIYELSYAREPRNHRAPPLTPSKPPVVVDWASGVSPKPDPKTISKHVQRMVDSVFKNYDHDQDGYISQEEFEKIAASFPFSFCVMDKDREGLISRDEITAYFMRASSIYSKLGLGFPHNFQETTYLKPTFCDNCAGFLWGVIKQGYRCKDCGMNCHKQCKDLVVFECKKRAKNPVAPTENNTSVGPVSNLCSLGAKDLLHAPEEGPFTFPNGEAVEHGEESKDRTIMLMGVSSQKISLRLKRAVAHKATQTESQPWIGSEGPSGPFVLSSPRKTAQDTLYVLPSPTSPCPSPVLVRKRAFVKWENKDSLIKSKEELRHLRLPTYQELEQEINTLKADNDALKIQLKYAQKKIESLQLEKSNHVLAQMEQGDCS

Row | percent coprecipitated [%] | Substance
1 | > 20 | A15-H-Ras (from UniProt P01112 1-189) (natural protein)
2 | > 20 | RasGRP with an NH2-terminal HA epitope tag (HA-RasGRP) (from UniProt O95267 1-797) (natural protein)
